Source: publication PMC4873981

Biological target: Myc-MRTF, full-length Y866G mutant (UniProt P59759)
Assay: co-IP; LLC-PK1 cells co-transfected with Myc-MRTF constructs and HA-TAZ constructs, IP with anti-Myc, blot for HA; untreated or LCM 30 min

UniProt P59759, sequence (P59759 whole entry Y866G): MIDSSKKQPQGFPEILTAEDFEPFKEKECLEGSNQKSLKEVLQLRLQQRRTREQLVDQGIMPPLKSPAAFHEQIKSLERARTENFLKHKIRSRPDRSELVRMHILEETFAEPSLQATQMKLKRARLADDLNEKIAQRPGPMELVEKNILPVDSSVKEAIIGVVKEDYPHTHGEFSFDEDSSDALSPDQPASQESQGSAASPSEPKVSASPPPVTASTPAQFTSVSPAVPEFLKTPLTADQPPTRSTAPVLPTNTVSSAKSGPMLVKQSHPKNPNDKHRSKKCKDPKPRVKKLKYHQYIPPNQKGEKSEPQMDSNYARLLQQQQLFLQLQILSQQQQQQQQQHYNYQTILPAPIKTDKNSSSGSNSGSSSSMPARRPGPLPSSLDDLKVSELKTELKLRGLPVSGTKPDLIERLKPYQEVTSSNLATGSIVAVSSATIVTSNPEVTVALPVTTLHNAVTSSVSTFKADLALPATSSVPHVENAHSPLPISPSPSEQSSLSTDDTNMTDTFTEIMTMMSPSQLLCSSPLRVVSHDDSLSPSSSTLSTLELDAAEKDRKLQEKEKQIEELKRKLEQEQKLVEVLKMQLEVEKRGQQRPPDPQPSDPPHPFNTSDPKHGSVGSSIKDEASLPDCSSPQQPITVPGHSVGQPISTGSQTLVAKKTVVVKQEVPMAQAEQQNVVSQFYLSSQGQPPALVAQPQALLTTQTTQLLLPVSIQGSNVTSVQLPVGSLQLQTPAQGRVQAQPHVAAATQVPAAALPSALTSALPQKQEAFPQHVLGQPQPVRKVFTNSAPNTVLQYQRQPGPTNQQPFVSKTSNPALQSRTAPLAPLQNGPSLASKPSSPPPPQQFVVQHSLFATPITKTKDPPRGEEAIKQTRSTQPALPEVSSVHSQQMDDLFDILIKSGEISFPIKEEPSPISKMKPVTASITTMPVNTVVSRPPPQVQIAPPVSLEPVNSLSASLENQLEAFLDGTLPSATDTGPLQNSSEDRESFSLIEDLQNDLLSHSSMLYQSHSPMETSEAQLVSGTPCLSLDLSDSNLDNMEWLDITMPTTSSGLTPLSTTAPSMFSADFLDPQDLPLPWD

Question: “HA-TAZ, wild type (from UniProt Q9GZV5 1-400) (natural protein)” was tested. Which reduction in association against WT MRTF did it give?
Answer: > 50%
